One test deals with OPM-2 xenografts. Nature of the test: OPM-2 xenografts in effector-cell-negative NSG mice. The class given is in vivo. As for the experimental part:
OPM-2 xenografts were prepared and conducted as previously described. NSG mice (NOD.Cg-Prkdcscid Il2rgtm1Wj1/SzJ) from The Jackson Laboratory (strain code 05557) were used. This strain lacks effector cells and eliminates the ADCC mechanism for all antibodies. AB095, an antibody that targets tetanus toxoid, was run as control. Dosing of test ADCs was normalized such that equal masses of the PBD component were delivered.
OPM-2 xenografts were prepared and conducted as previously described. NSG mice (NOD.Cg-Prkdcscid Il2rgtm1Wj1/SzJ) from The Jackson Laboratory (strain code 05557) were used. This strain lacks effector cells and eliminates the ADCC mechanism for all antibodies. AB095, an antibody that targets tetanus toxoid was run as control. Dosing of test ADCs was normalized such that equal masses of the SN38 component were delivered.
The combination of Hu34C3-MMAE E2 plus carfilzomib inhibited tumor growth (TGImax 43% (FIG. 26A) and TGImax 59% (FIG. 26B)) at similar levels to Hu34C3-MMAE E2 alone.
Efficacy of Hu34C3-MMAE E2 in combination with pomalidomide ((also known as 4-Amino-2-(2,6-dioxopiperidin-3-yl)isoindole-1,3-dione; marketed under the tradename POMALYST by Celgene Corporation, Summit, N.J. 07901) and/or dexamethasone ((also known as 8S,9R,10S,11S,13S,14S,16R,17R)-9-fluoro-11,17-dihydroxy-17-(2-hydroxyacetyl)-10,13,16-trimethyl-6,7,8,9,10,11,12,13,14,15,16,17-dodecahydro-3H-cyclopenta[a]phenanthren-3-one) was determined in subcutaneous xenografts of OPM-2 cells (van Rhee et al., 2009 Mol. Cancer Therapeutics 8: 2616-24). Effector-cell-negative mice were used (NSG strain) in this experiment. Vehicle (PBS/DMSO) was run as a control. ADCs were dosed at 3 or 6 mg/kg i.p.; pomalidomide was dosed at 20 mg/kg i.p. and dexamethasone was dosed at 10 mg/kg i.p.
Efficacy of Hu34C3-MMAE E2 was determined in subcutaneous xenografts of OPM-2 cells (van Rhee et al., 2009 Mol. Cancer Therapeutics 8: 2616-24). These xenografts were treated with bortezomib twice a week for two weeks. […] These tumors were re-randomized and either continued with bortezomib treatment or were switched to lenalidomide plus dexamethasone, pomalidomide, Hu34C3-MMAE E2, or Hu34C3-MMAE E2 plus pomalidomide treatments.

Test [1] relates to L-363 human multiple myeloma cells. The experiment in a line: In vitro proliferation assay (CellTiter-Blue), L-363 cells. The class given is cell-based. The settings on record: four days. On the procedure: All antibodies were conjugated to each of monomethyl auristatin E (“MMAE”; auristatin microtubule inhibitor), monomethyl auristatin F (“MMAF”; auristatin microtubule inhibitor) and duocarmycin (DNA damaging drug) using previously described methods (Doronina et al., 2003, Nat Biotechnology 21(7):778-784; Polson et al., 2007, Blood 1102:616-623). Drug loading for each ADC was similar. 10,000-20,000 cells (L-363 human multiple myeloma cells) expressing HuCS1 were plated into 96-well plates, and different amounts of ADCs added to the cells. Four days post addition of ADC, cell viability was measured using the CellTiter-Blue® Cell Viability Assay (Promega), and IC50 values were calculated.
(In general: Alamar Blue is a resazurin reagent that responds to reducing activity.)

For another test, the target named is T1, human CS1 (Homo sapiens, UniProt Q9NQ25).
T1 construct: expressed in transfected cells; host or cells: 293s cells
T1 sequence (Q9NQ25 23-335): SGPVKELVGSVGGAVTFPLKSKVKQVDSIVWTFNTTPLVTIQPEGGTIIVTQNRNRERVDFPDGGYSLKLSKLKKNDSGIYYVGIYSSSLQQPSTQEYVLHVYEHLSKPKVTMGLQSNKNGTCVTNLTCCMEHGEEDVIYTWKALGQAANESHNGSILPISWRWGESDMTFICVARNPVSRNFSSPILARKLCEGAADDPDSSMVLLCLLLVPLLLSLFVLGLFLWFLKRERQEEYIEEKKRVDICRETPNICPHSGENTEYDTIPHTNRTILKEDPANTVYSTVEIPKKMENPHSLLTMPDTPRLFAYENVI
The experiment in a line: Flow-cytometry competition assay with AF488-labeled PDL241 (murine antibodies, Example 2). In kind it is binding. The note with it: 293s cells transfected with human CS1; 60 μg/mL unlabeled test antibody, 6 μg/mL labeled PDL241; less than 20% inhibition = does not compete. As for the experimental part: 293s cells transfected with human CS1 (300,000 cells per data point) were incubated at various concentrations with an AF488-labeled PDL241 antibody. The concentration at which 80% of maximal binding occurred was identified (6 μg/mL) and used for the subsequent competition assays.
For the competition assays, transfected 293s cells (300,000 cells per data point) were incubated for 30 min (on ice) with a tenfold excess of unlabeled test antibody (60 μg/mL). After the incubation, 6 μg/mL of AF488-labeled PDL241 was added to the cells and incubated on ice for 30 minutes. After this incubation, the cells were washed with PBS+1% FBS, and binding of AF488-labeled PDL241 was determine by flow cytometry.

[2] abbreviates: Example 29, low-dose Hu34C3-MMAE E2 3 mg/kg i.p., pomalidomide 20 mg/kg i.p., dexamethasone 10 mg/kg i.p.
[3] abbreviates: antibody conjugated to MMAF, read-out: IC50, MMAF ADC.
The mark [4] stands for this setting: antibody conjugated to duocarmycin, read-out: IC50, Duo ADC.
The mark [5] stands for this setting: antibody conjugated to MMAE, read-out: IC50, MMAE ADC.

Where two headings read alike, the source gives them in different places.

With `CC(C)C[C@H](NC(=O)[C@H](Cc1ccccc1)NC(=O)c1cnccn1)B(O)O` [bortezomib, [(1R)-3-methyl-1-[[(2S)-1-oxo-3-phenyl-2-[(pyrazinylcarbonyl)amino]propyl]amino]butyl]boronic acid], in the test with OPM-2 xenografts (Example 27, Hu34C3-MMAE E2 3 mg/kg, bortezomib 1 mg/kg), the TGImax stood at 58%. Moreover, in the test on OPM-2 xenografts (Example 31, bortezomib twice a week for two weeks), the “TGImax at end of two week treatment” value is 66%.

Turning to `CC(C)C[C@H](NC(=O)[C@H](CCc1ccccc1)NC(=O)CN1CCOCC1)C(=O)N[C@@H](Cc1ccccc1)C(=O)N[C@@H](CC(C)C)C(=O)[C@@]1(C)CO1` [carfilzomib, (S)-4-Methyl-N-((S)-1-(((S)-4-methyl-1-((R)-2-methyloxiran-2-yl)-1-oxopentan-2-yl)amino)-1-oxo-3-phenylpropan-2-yl)-2-((S)-2-(2-morpholinoacetamido)-4-phenylbutanamido)pentanamide], the TGImax in the test with OPM-2 xenografts (Example 28, single agents, carfilzomib at 1.5 and 3 mg/kg) was less than 10%.

`C[C@@H]1C[C@H]2[C@@H]3CCC4=CC(=O)C=C[C@]4(C)[C@@]3(F)[C@@H](O)C[C@]2(C)[C@@]1(O)C(=O)CO` [dexamethasone]: the TGImax in the test with OPM-2 xenografts (setting [2]) turned out to be 25%.

With `Nc1cccc2c1C(=O)N(C1CCC(=O)NC1=O)C2=O` (centres unmarked) [pomalidomide, 4-Amino-2-(2,6-dioxopiperidin-3-yl)isoindole-1,3-dione], in the test with OPM-2 xenografts (setting [2]), the TGImax was 34%.

B1: Mu12D10 (conjugate)
VH: EVKLVESEGGLVQPGSSMKLSCTASGFTFSDYFMAWVRQVPEKGLEWVASINYDGNSTYFLDSLKSRFIISRDNAKNILYLQMSSLKSEDTATYYCARDRGFYFDYWGQGTTLTVSS
VL: DVVMTQTPLSLPVSLGDQASISCRFSQSLVHRNGNTYLHWYLQKPGQSPKLLIYKVSNRFSGVPDRFSGSGSGTDFTLKISRVEAEDLGVYFCSQSTHVRPYTFGGGTKLEIR
modifications: conjugate
As to B1, the IC50 – broadly, the concentration that gives 50% inhibition – came out at 0.15 nM in test [1] (setting [3]) and 0.2 nM in test [1] (setting [4]). For the same molecule, the “Competition with AF488-labeled PDL241 for binding” value (“Competition” for short) with human CS1 is given as “do not compete with PDL241”.

B2: Mu31D2 (conjugate)
VH: EVKLVESEGGLVQPGSSMKLSCTASGFTFSDYYMAWVRQVPEKGLEWVADINYDGGSTYYLDSLKSRFIISRDNAKNILCLQMSSLKSEDTATYYCARDRGYYFDYWGQGTTLTVSS
VL: DVVMTQTPLSLPVSLGDQASISCRSSQSLVHSNGNTYLHWYLQKPGQSPKLLIYKVSNRFSGVPDRFSGSGSGTDFTLKISRVEAEDLGVYFCSQSTHVPPFTFGGGTKLEIK
modifications: conjugate
As to B2, the IC50 in test [1] (setting [5]) was determined as 3.5 nM; in test [1] (setting [3]), 0.12 nM; in test [1] (setting [4]) it was 0.2 nM. In the test with human CS1, the “Competition” value was “do not compete with PDL241”.

B3: Mu34C3: murine anti-CS1 antibody, VH SEQ ID NO: 5, VL SEQ ID NO: 6; in Table 5 tested as MMAE, MMAF, duocarmycin ADCs (antibody, V domains shown)
VH: EVKLVESEGGLVQPGSSMKLSCTASGFTFSDYYMAWVRQVPEKGLEWVASINYDGSSTYYLDSLKSRFIISRDNAKNILFLQMNSLKSEDTATYYCARDRGYYFDYWGQGTTLTVSS
VL: DVVMTQTPLSLPVSLGDQASISCRSSQSLVHSNGNTYLHWYLQKPGQSPKLLIYKVSNRFSGVPDRFSGSGSGTDFTLKISRVEAEDLGVYFCSQSTHVPPFTFGGGTKLEIK
For the molecule B3, the IC50 in test [1] (setting [5]) is 1.3 nM; in test [1] (setting [3]), 0.08 nM; in test [1] (setting [4]), 0.25 nM. The “Competition” value in the test with human CS1 is given as “do not compete with PDL241”.

B4: Mu14C11 (conjugate)
VH: EVKLVESEGGLVQPGSSMKLSCTASGFTFSDYYMAWVRQVPEKGLEWVASINYDGSSTYYLDSLKSRFIISRDNAKNILYLQMSGLKSEDTATYSCARDRGFYFDYWGQGTTLTVSS
VL: DVVMTQTPLSLPVSLGDQASISCRSSQSLVHRNGNTYLHWYLQKPGQSPKLLIYKVSNRFSGVPDRFSGSGSGTDFTLKISRVEAEDLGVYFCSQSTHVPPYTFGGGTKLEIK
modifications: conjugate
B4: the concentration for half-maximal inhibition (IC50) in test [1] (setting [3]) was found to be 0.25 nM; in test [1] (setting [4]), 0.31 nM. Also, the “Competition” value with human CS1 is given as “do not compete with PDL241”.

B5: Mu27A12 (conjugate)
VH: EVKLVESEGGLVQPGSSMKLSCTASGFTFSDYYMAWVRQVPEKGLEWVAEINYDGSSTYYLDSLKSRFIISRDNAKNILYLQMSNLKSEDTATYYCARDRGFYFDYWGQGTTLTVSS
VL: DVVMTQTPLSLPVSLGDQASISCRSSQSLVHNNGNTYLHWYLQKPGQSPKLLIYKVSNRFSGVPDRFSGSGSGTDFTLKISRVEAEDLGVYFCSQSTHVPPYTFGGGTKLEIK
modifications: conjugate
Take B5: the IC50 was 3.5 nM in test [1] (setting [5]), 0.11 nM in test [1] (setting [3]) and 0.19 nM in test [1] (setting [4]). The “Competition” value with human CS1 was “do not compete with PDL241”.
